Assay results taken from patent publication US20210355194A1 (TWIST BIOSCIENCE, published 2021).

B1: variant 6-60 (Fc fusion)
VHH: EVQLVESGGGLVQPGGSLRLSCAASGDTYGSYWMGWFRQAPGKEREFVATISQSGAATAYADSVKGRFTISADNSKNTAYLQMNSLKPEDTAVYYCAGLLRYSGTYYDAFDVWGQGTLVTVSS
B2: variant 6-2 (Fc fusion)
VHH: EVQLVESGGGLVQPGGSLRLSCAASGFTMSSSWMGWFRQAPGKEREFVTVISGVGTSYADSVKGRFTISADNSKNTAYLQMNSLKPEDTAVYYCARGPDSSGYGFDYWGQGTLVTVSS
B3: variant 6-13 (Fc fusion)
VHH: EVQLVESGGGLVQPGGSLRLSCAASGLTFNDYAMGWFRQAPGKEREFVAHIPRSTYSPYYADSVKGRFTISADNSKNTAYLQMNSLKPEDTAVYYCAFLVGPQGVDHGAFDVWGQGTLVTVSS
B4: variant 6-103 (Fc fusion)
VHH: EVQLVESGGGLVQPGGSLRLSCAASGRTSSPIAMGWFRQAPGKEREPVAVRWSDDYTYYADSVKGRFTISADNSKNTAYLQMNSLKPEDTAVYYCAKKLGGYYAFDIWGQGTLVTVSS
B5: variant 5-60 (Fc fusion)
VHH: EVQLVESGGGLVQPGGSLRLSCAASGRSFSSHRMGWFRQAPGKEREFVAAIMWSGSHRNYADSVKGRFTISADNSKNTAYLQMNSLKPEDTAVYYCAAIAYEEGVYRWDWGQGTLVTVSS
B6: variant 6-20 (Fc fusion)
VHH: EVQLVESGGGLVQPGGSLRLSCAASGSTLPYHAMGWFRQAPGKEREFVAAITWNGASTSYADSVKGRFTISADNSKNTAYLQMNSLKPEDTAVYYCARDRYYDTSASYFESETWGQGTLVTVSS
B7: variant 5-37 (Fc fusion)
VHH: EVQLVESGGGLVQPGGSLRLSCAASGSTFSINAMGWFRQAPGKEREFVGGISRSGATTNYADSVKGRFTISADNSKNTAYLQMNSLKPEDTAVYYCAADGVPEYSDYASGPVWGQGTLVTVSS
B8: variant 6-32 (Fc fusion)
VHH: EVQLVESGGGLVQPGGSLRLSCAASGFTLDYYDMGWFRQAPGKEREFVALISWSGGSTYYADSVKGRFTISADNSKNTAYLQMNSLKPEDTAVYYCATDFYGWGTRERDAFDIWGQGTLVTVSS
B9: variant 6-10 (Fc fusion)
VHH: EVQLVESGGGLVQPGGSLRLSCAASGSIASIHAMGWFRQAPGKEREFVAAISRSGGFGSYADSVKGRFTISADNSKNTAYLQMNSLKPEDTAVYYCARDDKYYDSSGYPAYFQHWGQGTLVTVSS
B10: variant 6-18 (Fc fusion)
VHH: EVQLVESGGGLVQPGGSLRLSCAASGLTFRNYAMGWFRQAPGKEREFIAGMMWSGGTTTYADSVKGRFTISADNSKNTAYLQMNSLKPEDTAVYYCAREGYYYDSSGYLNYFDYWGQGTLVTVSS
B11: variant 6-37 (Fc fusion)
VHH: EVQLVESGGGLVQPGGSLRLSCAASGHTFSTSWMGWFRQAPGKEREFVATINSLGGTNYADSVKGRFTISADNSKNTAYLQMNSLKPEDTAVYYCARVSSGDYGMDVWGQGTLVTVSS
B12: variant 5-47 (Fc fusion)
VHH: EVQLVESGGGLVQPGGSLRLSCAASGFTFGSYDMGWFRQAPGKEREFVTAINWSGARTAYADSVKGRFTISADNSKNTAYLQMNSLKPEDTAVYYCAARSVYSYEYNWGQGTLVTVSS
B13: variant 6-46 (Fc fusion)
VHH: EVQLVESGGGLVQPGGSLRLSCAASGLTFSAMGWFRQAPGKEREFVALIRRDGSTIYADSVKGRFTISADNSKNTAYLQMNSLKPEDTAVYYCAALGILFGYDAFDIWGQGTLVTVSS
B14: variant 6-5 (Fc fusion)
VHH: EVQLVESGGGLVQPGGSLRLSCAASGRTFTMGWFRQAPGKEREFVASTNSAGSTNYADSVNGRFTISADNSKNTAYLQMNSLKPEDTAVYYCTTVDQYFDYWGQGTLVTVSS
B15: variant 6-22 (Fc fusion)
VHH: EVQLVESGGGLVQPGGSLRLSCAASGRTFSEVVMGWFRQAPGKEREFVATIHSSGSTSYADSVKGRFTISADNSKNTAYLQMNSLKPEDTAVYYCVRVTSDYSMDSWGQGTLVTVSS
B16: variant 6-55 (Fc fusion)
VHH: EVQLVESGGGLVQPGGSLRLSCAASGFTMSSSWMGWFRQAPGKEREFVARITSGGSTGYADSVKGRFTISADNSKNTAYLQMNSLKPEDTAVYYCASVDGYFDYWGQGTLVTVSS
B17: variant 6-52 (Fc fusion)
VHH: EVQLVESGGGLVQPGGSLRLSCAASGDTYGSYWMGWFRQAPGKEREVVAAITSGGSTVYADSVKGRFTISADNSKNTAYLQMNSLKPEDTAVYYCARVDSRFDYWGQGTLVTVSS
B18: variant 6-34 (Fc fusion)
VHH: EVQLVESGGGLVQPGGSLRLSCAASGSAFRSNAMGWFRQAPGKEREFVAHISWSSKSTYYADSVKGRFTISADNSKNTAYLQMNSLKPEDTAVYYCATYCSSTSCFDYWGQGTLVTVSS
B19: variant 6-58 (Fc fusion)
VHH: EVQLVESGGGLVQPGGSLRLSCAASGRAVSTYAMGWFRQAPGKEREFVAAISGSENVTSYADSVKGRFTISADNSKNTAYLQMNSLKPEDTAVYYCLSVTGDTEDYGVFDTWGQGTLVTVSS
B20: variant 5-32 (Fc fusion)
VHH: EVQLVESGGGLVQPGGSLRLSCAASGFTPDNYAMGWFRQAPGKEREFVAALGWSGVTTYHYYADSVKGRFTISADNSKNTAYLQMNSLKPEDTAVYYCASDESDAANWGQGTLVTVSS
B21: variant 5-56 (Fc fusion)
VHH: EVQLVESGGGLVQPGGSLRLSCAASGRTFSSNMGWFRQAPGKEREFVARIFGGDRTLYADSVKGRFTISADNSKNTAYLQMNSLKPEDTAVYYCADINGDWGQGTLVTVSS
B22: variant 5-67 (Fc fusion)
VHH: EVQLVESGGGLVQPGGSLRLSCAASGFNVNDYAMGWFRQAPGKEREFVAGITSSVGVTNYADSVKGRFTISADNSKNTAYLQMNSLKPEDTAVYYCAADIFFVNWGRGTLVTVSS
B23: variant 6-38 (Fc fusion)
VHH: EVQLVESGGGLVQPGGSLRLSCAASGNTFSGGFMGWFRQAPGKEREFVAVISSLSSKSYADSVKGRFTISADNSKNTAYLQMNSLKPEDTAVYYCAKVDSGYDYWGQGTLVTVSS
B24: variant 6-78 (Fc fusion)
VHH: EVQLVESGGGLVQPGGSLRLSCAASGRTYDAMGWFRQAPGKEREFVASVTSGGYTHYADSVKGRFTISADNSKNTAYLQMNSLKPEDTAVYYCAKFGRKIVGATELDYWGQGTLVTVSS
B25: variant 6-24 (Fc fusion)
VHH: EVQLVESGGGLVQPGGSLRLSCAASGFTLDYYAMGWFRQAPGKEREFVAAINWSGDNTHYADSVKGRFTISADNSKNTAYLQMNSLKPEDTAVYYCARAPFYCTTTKCQDNYYYMDVWGQGTLVTVSS

What follows are binders tested against CV S-protein construct 6 trimer TP31001F (SARS-CoV-2, UniProt P0DTC2 14-1208) (assay: SPR).

Binder | Kd
B1 | 0.1 nM
B2 | 1.2 nM
B3 | 0.6 nM
B4 | 1 nM
B5 | 0.8 nM
B6 | 0.3 nM
B7 | 1.8 nM
B8 | 0.1 nM
B9 | 0.6 nM
B10 | 5.3 nM
B11 | 0.7 nM
B12 | 0.7 nM
B13 | 1.9 nM
B14 | 0.8 nM
B15 | 1.8 nM
B16 | 0.3 nM
B17 | 1.1 nM
B18 | 0.7 nM
B19 | 1 nM
B20 | 0.1 nM
B21 | 2.77 nM
B22 | 1 nM
B23 | 0.5 nM
B24 | 0.4 nM
B25 | 0.2 nM
